{"source": "paper PMC4753134", "origin": "cited, not measured here", "key": {"[1]": {"target": "EGFR (Homo sapiens) (UniProt P00533)"}, "[2]": {"target": "Met (Homo sapiens) (UniProt P08581)", "sequence (P08581 25-932)": "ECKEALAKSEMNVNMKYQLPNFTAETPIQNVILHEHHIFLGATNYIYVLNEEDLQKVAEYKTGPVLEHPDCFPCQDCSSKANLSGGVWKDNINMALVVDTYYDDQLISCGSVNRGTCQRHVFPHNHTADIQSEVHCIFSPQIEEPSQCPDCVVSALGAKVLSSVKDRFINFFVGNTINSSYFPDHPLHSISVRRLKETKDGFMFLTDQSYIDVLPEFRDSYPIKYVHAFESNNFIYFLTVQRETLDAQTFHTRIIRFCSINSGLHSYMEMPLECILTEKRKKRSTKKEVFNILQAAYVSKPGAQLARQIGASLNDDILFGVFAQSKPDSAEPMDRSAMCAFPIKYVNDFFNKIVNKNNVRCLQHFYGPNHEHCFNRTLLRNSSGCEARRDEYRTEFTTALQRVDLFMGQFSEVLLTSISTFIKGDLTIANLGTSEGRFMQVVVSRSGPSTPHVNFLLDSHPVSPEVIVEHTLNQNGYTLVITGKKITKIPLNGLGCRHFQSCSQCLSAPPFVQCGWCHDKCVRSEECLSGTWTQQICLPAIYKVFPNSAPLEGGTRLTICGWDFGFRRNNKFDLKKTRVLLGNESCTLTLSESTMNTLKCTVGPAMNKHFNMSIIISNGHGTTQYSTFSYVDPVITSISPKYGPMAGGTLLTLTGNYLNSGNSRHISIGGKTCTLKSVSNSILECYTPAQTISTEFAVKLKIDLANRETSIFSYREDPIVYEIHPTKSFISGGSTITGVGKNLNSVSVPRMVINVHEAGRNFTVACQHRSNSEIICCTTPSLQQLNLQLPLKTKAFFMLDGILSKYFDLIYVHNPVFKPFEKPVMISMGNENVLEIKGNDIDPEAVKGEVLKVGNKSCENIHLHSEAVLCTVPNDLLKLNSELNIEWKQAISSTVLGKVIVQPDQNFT"}}, "data": [{"substance": "decorin (from UniProt P07585)", "values": [{"measurement": "Kd", "setting": "[1]", "value": 87, "unit": "nM"}, {"measurement": "Kd", "setting": "[2]", "value": 2, "unit": "nM"}]}]}
